Laboratory results as given in US20050059058A1 (CASE WESTERN RESERVE UNIVERSITY, published 2005).
One block for each binder: values may come before it.

Columns and labels:
ZipA protein of E. coli = target: T1, ZipA protein of E. coli (Escherichia coli, UniProt B1IX59 1-328); experiment: affinity blotting (far Western) with 32P-labelled probe
T1 construct: Complete ZipA as present in the insoluble (P200) fraction of E. coli, or overproduced from the zipA ORF in a T7 system; on blots after boiling in SDS; also called 50 Kd band
Excerpt: To address the possibility that other proteins interact with FtsZ, the present inventors searched for proteins with affinity to FtsZ. In one approach, a FtsZ derivative (HFKT-FtsZ) was made which carries at the N-terminus a histidine-tag (the his-tag is useful for purification by metal chelate affinity chromatography such as that described in U.S. Pat. No. 5,310,663, hereby incorporated by reference) as well s a substrate site for heart muscle kinase. The purified protein was radiolabeled in vitro by incubation with kinase and [γ³²P]ATP and used as a probe on Western blots.
After the addition of one volume of electrophoresis sample buffer (125 mM Tris.Cl, 4% SDS, 20% glycerol, 1.4 M (β-mercaptoethanol, pH=6.6), samples (e.g., whole cells boiled in sample buffer, or fractionated cells) were held in a boiling water bath for 5 min., and subjected to conventional SDS-PAGE on 0.75 mm thick 10% T/2.7% C gels. Electrophoretic transfer to nitrocellulose filter (0.2μ) was performed in a Genie blotter (Idea Scientific Co.) with regular Towbin buffer (25 mM Tris.Cl, 192 mM glycine, 20% methanol, pH 8.3) at 12 V for 30 min. To monitor the transfer and to visualize the molecular weight standards, filters were treated with the reversible stain Ponceau S (0.1% in 5% acetic acid) for 1 min. Filters were next destained in 10 mM Tris-Cl, rinsed in water, and allowed to dry for 15 min in air.

[1] = target: T2, FtsZ protein (native, unlabelled) (Escherichia coli, UniProt P0A9A6 1-383); experiment: assay not described
T2 construct: also called native FtsZ; immobilized FtsZ
T2 sequence (looked up): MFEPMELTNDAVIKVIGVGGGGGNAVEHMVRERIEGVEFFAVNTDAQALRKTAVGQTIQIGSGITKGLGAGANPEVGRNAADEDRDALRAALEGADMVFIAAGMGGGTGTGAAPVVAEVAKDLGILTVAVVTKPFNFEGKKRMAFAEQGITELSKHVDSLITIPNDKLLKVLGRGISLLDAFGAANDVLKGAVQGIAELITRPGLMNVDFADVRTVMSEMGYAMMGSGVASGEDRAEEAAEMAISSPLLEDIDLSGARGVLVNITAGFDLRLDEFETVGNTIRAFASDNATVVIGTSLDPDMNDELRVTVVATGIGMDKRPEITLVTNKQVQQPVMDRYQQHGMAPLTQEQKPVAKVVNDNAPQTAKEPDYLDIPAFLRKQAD

binding result (ZipA protein of E. coli): no binding
B1: HFKT-MinE fusion protein (15.9 kD, encoded by pDB311), 32P-labelled (other, Escherichia coli)
chain: MGHHHHHHHHHHSSGHIEGRHMDYKDDDDKARRASVEFHMASMTGGQQMGRGSDFFLSRKKNTANIAKERLQIIVAERRRSDAEPHYLPQLRKDILEVICKYVQIDPEMVTVQLEQKDGDISILELNVTLPEAEELK
modifications: 32P-phosphorylated in vitro by bovine heart muscle kinase at the kinase substrate site of the HFKT tag
notes: range 5-88; Negative control probe; also called HKFT-MinE; radiolabelled HKFT-MinE

binding result [1]: binds
B2: soluble fragment of ZipA (the 39-328 peptide) (other)
chain: not shown
notes: also called portion or fragment of the ZipA protein
